{
  "source": "patent US10323078B2",
  "about": "“Isolated peptides and fragments thereof from fibrinogen for use as drugs, particularly in skin inflammatory diseases” (Universite Paris Descartes, priority 2015, dated 2019)",
  "molecules": {"B1": {"name": "DAGGCLHADPDLGVLCPTGCQLQEALLQQERPIRNSVDELNNNVEAVSQTSSSSFQYMYLLKDLWQKRQKQVKDNENVVNEYSSELEKHQLYIDETVNSNIPTNLRVLRSILENLRSKIQKLESDVSAQMEYCRTPCTVSCNIPVVS (protein)", "chain": "DAGGCLHADPDLGVLCPTGCQLQEALLQQERPIRNSVDELNNNVEAVSQTSSSSFQYMYLLKDLWQKRQKQVKDNENVVNEYSSELEKHQLYIDETVNSNIPTNLRVLRSILENLRSKIQKLESDVSAQMEYCRTPCTVSCNIPVVS", "modifications": "fragment Fg2", "notes": "recombinant fragment of Bß sub-unit of human fibrinogen, used as negative control"}},
  "key": {"NHEK cells [1]": {"tested_on": "NHEK cells", "experiment": "In vitro model of psoriasis: IL-8 release by keratinocytes stimulated by IL-17, OSM and TNF-α", "format": "cell-based, human", "details": "NHEK stimulated by IL-17, OSM and TNF-α (3 ng/ml each); 10 μM; 48 h", "experimental": "(§1) FIG. 30: Inhibition of Il-8 production by keratinocytes stimulated by Il-17, OSM and TNF-α. NHEK cells were stimulated by a combination of Il-17, OSM and TNF-α (3 ng/ml each) and treated with JAK inhibitor at 10 μM (positive control) or Fg1.1.1 at concentrations ranging from 1.52 to 12.2 μM for 48 h. Measurement of IL-8 production was realized by ELISA and cytotoxicity was determined by the MTT assay as described in Materials and Methods Control experiments were done with untreated and unstimulated NHEK cells (cell alone) and with untreated NHEK stimulated by the combination of Il-17, OSM and TNF-α. Data are means±S.D. of three individual experiments. Statistical significance is indicated by * (P<0.05), ** (P<0.01), and *** (P<0.001), respectively.\n(§2) For experiences using an in vitro model of psoriasis, cutaneous primary human keratinocytes (NHDK) were grown in culture medium for 24 hours. […]\n(§3) Human IL-1ß, IL-8, IL-12, hBD-2, and TNF-α protein concentration was measured in the supernatants of stimulated cells using various ELISA Set kits (Ready-Set-Go kit from eBioscience for acne experiments, and for psoriasis experiments the Duo set IL-8 kit from R&D Systems and the BD-2 Human Development (hBD-2) from Peprotech) according to the manufacturer's instructions. […] The optical density was determined at 450 nm at a wavelength correction of 540 nm. […]"}, "NHEK cells [2]": {"tested_on": "NHEK cells", "experiment": "In vitro model of psoriasis: hBD-2 release by keratinocytes stimulated by IL-17, OSM and TNF-α", "format": "cell-based, human", "details": "NHEK stimulated by IL-17, OSM and TNF-α (5 ng/ml each); 10 μM; 72 h", "experimental": "as §1, with “31:” for “30:”, “hBD-2” for “Il-8”, “(5” for “(3”, “72” for “48”, “hBD-2” for “IL-8”\nas §2, §3"}, "NHEK cells [3]": {"tested_on": "NHEK cells", "experiment": "In vitro model of psoriasis: cytotoxicity by MTT assay", "format": "cell-based, human", "details": "all concentrations tested (1.52 to 12.2 μM)", "experimental": "as §1, with “Statistical significance is indicated by * (P<0.05), ** (P<0.01), and *** (P<0.001), respectively.” left out\nFIG. 31: Inhibition of hBD-2 production by keratinocytes stimulated by Il-17, OSM and TNF-α. […] Measurement of hBD-2 production was realized by ELISA and cytotoxicity was determined by the MTT assay as described in Materials and Methods Control experiments were done with untreated and unstimulated NHEK cells (cell alone) and with untreated NHEK stimulated by the combination of Il-17, OSM and TNF-α. […]\nCrystal violet staining was used to determine the number of adherent cells in 96-well plates. […] After washing with PBS, 100% methanol was added, and the absorbance was measured spectrophotometrically at 540 nm on an ELISA multiwell reader. […] After thorough mixing, the absorbance was measured at 540 nm."}, "[4]": {"tested_on": "Pfg binding to fibrinogen", "experiment": "Inhibition of biotinylated Pfg binding to coated fibrinogen", "design": "species or system Propionibacterium acnes", "details": "biotinylated Pfg pretreated with increasing amount of recombinant peptide 1 h at 37° C.; fibrinogen coated 25 μg per well", "experimental": "FIG. 9: Dose-dependent inhibition of biotinylated Pfg binding to fibrinogen by fibrinogen-derived peptide. Biotinylated PFg (0.4 mg) was pretreated with increasing amount of recombinant peptides Fg1 (♦), Fg2 (▪) or BSA as control (●) for 1 h at 37° C., and the binding activity to coated fibrinogen on polystyrene plate (25 μg per well) was evaluated. Results are expressed as mean±SD. Each point was done in quadruplet.\nSince it has been shown that only Fg1 was able to recognize Pfg, biotinylated Pfg was pre-treated with various concentrations of purified Fg1 and tested its ability to recognize immobilized fibrinogen. Fg2 and BSA were used as neative controls (FIG. 9)."}, "P. acnes RON strain": {"tested_on": "P. acnes RON strain", "experiment": "Adhesion assay, biotinylated P. acnes binding to monocytes (ThP1)", "format": "cell-based, Propionibacterium acnes", "details": "monocytes (THP-1); bacteria pretreated 0.87 to 7 μM, 1 h at 37° C.", "experimental": "FIG. 13: Dose-dependent inhibition of P. acnes RON binding to monocytes cell line. Biotinylated P. acnes RON strain at concentrations adjusted to 0.1 of absorbance at 600 nm was pre-treated with the recombinant peptides Fg1 and Fg2 and incubated 1 h at 37° C. with the human immortalized monocytes cell line ThP1. After removal of unbound bacteria, adhesion activity was detected at 410 nm. Data are means±S.D. of three separate experiments. Statistical significance is indicated by * (P<0.05), ** (P<0.01), *** (P<0.001), and **** (P<0.0001), respectively.\nThe bacterial suspension was adjusted at 600 nm to the desired concentration, pretreated with peptides Fg1 and Fg2 at the final concentration ranging from 0.87 to 7 μM for 1 h at 37° C. and deposited on the previously saturated cells with a solution of PBS SVF 2% for 2 h. After incubation for 1 h at 37° C., unbound bacteria are removed by 3 washes with PBS and fixed bacteria are detected by a streptavidin-peroxidase solution of 0.5 μg/ml for 30 min.\nWhole P. acnes bacteria are labelled by biotinylation, pre-treated or not with the peptides and contacted with the various cell lines. After removal of the unfixed bacteria, the adhesion activity was measured spectrophotometrically by using the streptavidin-peroxidase conjugate and a chromogenic substrate. […]"}, "[5]": {"tested_on": "HaCaT, NHDK, ThP1, MRC5 and HDF cell lines", "experiment": "Cell viability (MTT) after treatment with Fg1 and Fg2 recombinant peptides", "format": "cell-based, human", "details": "all 5 cell lines; 0.22 to 7 mM for 18 h at 37° C.", "experimental": "FIG. 10: Evaluation of cell viability after treatment with the Fg1 and Fg2 recombinant peptides. Human immortalized and primary keratinocyte cell lines HaCaT and NHDK; immortalized monocytes cell line ThP1, and immortalized and primary fibroblast cell lines MRCS and HDF were incubated with Fg1 and Fg2 recombinant peptides with concentrations ranging from 0.22 to 7 mM for 18 h at 37° C. Cell viability was assessed using the MTT assay as described in Materials and Methods.\nCrystal violet staining was used to determine the number of adherent cells in 96-well plates. Briefly, after incubation with the test compound, the culture medium was discarded and the cells were incubated with a 0.05% crystal violet solution (Sigma) for 30 min at room temperature. After washing with PBS, 100% methanol was added, and the absorbance was measured spectrophotometrically at 540 nm on an ELISA multiwell reader. The MTT ([…]) assay was performed to test cell viability in 96-well plates. […] After thorough mixing, the absorbance was measured at 540 nm.\nWhole P. acnes bacteria are labelled by biotinylation, pre-treated or not with the peptides and contacted with the various cell lines. After removal of the unfixed bacteria, the adhesion activity was measured spectrophotometrically by using the streptavidin-peroxidase conjugate and a chromogenic substrate."}, "Pfg": {"tested_on": "Pfg", "experiment": "Western ligand blot with biotinylated Pfg", "format": "binding, Propionibacterium acnes", "details": "E. coli total protein after IPTG induction, 12.5% SDS-PAGE; biotinylated Pfg 0.1 μg/ml", "experimental": "FIG. 5: Binding of P. acnes surface proteins to fibrinogen. (A) Various quantities of human fibrinogen (hFg) and bovine fibrinogen (bFg) were immobilized onto a 96-well polystyrene plate at 4° C. for 18 h and incubated with biotinylated Pfg at 0.1 μg/ml for 2 h at 23° C. Bovine serum albumin (BSA) was used as negative control. Bound material was detected by using the HRP-streptavidin conjugate. Peroxidase activity was measured by using the ABTS substrate at 405 nm. Proteins (10 μg per lane) were separated by 10% SDS-PAGE and detected by (B) Commassie blue staining, and transferred to nitrocellulose membrane and incubated with (C) HRP-streptavidine alone, and (D) biotinylated Pfg (0.1 μg/ml). Lanes 1: molecular weight standards. Lane 2: BSA. Lane 3: hFg. Lane 4: bFg.\nFIG. 8: Cloning of Bß human fibrinogen fragments and binding with Pfg. (A) Cloning and expression of recombinant human Bß fibrinogen fragments Fg1, Fg2, Fg3 and Fg4. Fibrinogen fragments were obtained by RT-PCR and expression plasmids were constructed as described in Materials and Methods. (B) GST-fused proteins were expressed in E. coli, fractionated by 12.5% SDS-PAGE, and detected by Coomassie blue staining (B), and incubated with biotinylated Pfg (0.1 μg/ml) as described in Materials and Methods (C).\nTo characterize the interaction between P. acnes and ligands, we used biotinylated molecules in quantitative and qualitative assays. In a first set of assays, ECM ligands (fibrinogen, collagens I, IV, VI and VIII) were used as labelled proteins with biotin. In a second set of assays, P. acnes surface proteins (total extract and purified Pfg) were biotinylated. For quantitative analysis, unlabeled protein were diluted into 50 mM carbonate-bicarbonate, pH 9.6 buffer to yield a protein concentration ranging from 0.01 to 50 μg/ml, and then immobilized to 96-well polystyrene plates at 4° C. overnight. The wells were rinsed three times with 0.2 ml of PBS containing 0.05% Tween-20 (PBS-Tween). Biotinylated proteins (0.01 to 16 μg/ml in PBS-Tween) were added to the wells and incubated at room temperature for 1 h. The wells were rinsed three times with 0.2 ml of PBS-Tween. Peroxidase conjugated to streptavidin (0.5 μg/ml in PBS-Tween) was added and incubated for 30 min at room temperature. After washing, bound peroxidase was detected using the chromogenic peroxidase substrate ABTS. For qualitative analysis, unlabelled protein (10-75 μg per lane) were separated by SDS-PAGE and then transferred to nitrocellulose membranes (0.45 μm pore size), as described previously (Towbin, 1979). Membranes were then saturated overnight at 4° C. in PBS containing 5% BSA, 0.05% Tween-20 (PBT buffer). Binding activity was detected by incubating the membranes with 20 ml of PBT containing biotinylated proteins (0.1 μg/ml) for 2 h at room temperature followed by three washes with PBT. Bound biotinylated proteins were detected by incubating the membrane with peroxidase conjugated to streptavidin (0.5 μg/ml in PBT) for 1 h at room temperature. After washing, bound peroxidase activity was detected using 3,3′-diaminobenzidine in the presence of CoCl2 and H2O2 (Harlow and Lane, 1988).\nSince it was shown that Pfg is recognized by fibrinogen, this ECM ligand was used to analyze the nature of this interaction. First it was analyzed the ability of fibrinogen to be recognized by purified Pfg (FIG. 5). Human and bovine Fg (hFg, bFg) were immobilized to polysterene plate and the binding activity of biotinylated Pfg was measured. […] It has been shown that fibrinogen is a glycoprotein containing both N- and O-linked glycans (Debeire 1985; Reid Townsend 1982; L'Hôte 1996). […] In parallel, deglycosylation was assessed by visualization of a shift in the mobility after electrophoresis separation and Coomassie blue staining (FIG. 6A, lanes 3 and 5) and also by using the RCA-I plant lectin able to recognize ß-linked galactosyl residues in terminal position (FIG. 6C) (Green, 1987). […]"}},
  "note": "Ends that are not written are not given here.",
  "data": [
    {"molecule": "Jak Inhibitor I", "values": [
      {"measurement": "Inhibition of IL-8 release", "setting": "NHEK cells [1]", "result": 67, "unit": "%"},
      {"measurement": "Inhibition of hBD-2 release", "setting": "NHEK cells [2]", "result": 80, "unit": "%"}
    ]},
    {"molecule": "LLLCVFLVKSQGVND [Fg1.1.1, LLLCVFLVKSQGVND]", "values": [
      {"measurement": "Effect on cell viability (MTT)", "setting": "NHEK cells [3]", "result": "no effect on cell viability"}
    ]},
    {"molecule": "B1", "values": [
      {"measurement": "Inhibition of the recognition between Pfg and human fibrinogen", "setting": "[4]", "result": "did not"},
      {"measurement": "Inhibition of adhesion of P. acnes RON strain", "setting": "P. acnes RON strain", "result": "no anti-adhesive activity"},
      {"measurement": "Cytotoxic activity (cell viability, MTT)", "setting": "[5]", "result": "no cytotoxic activity"},
      {"measurement": "Recognition of GST-fused recombinant Bß fibrinogen fragments by biotinylated Pfg", "setting": "Pfg", "result": "only Fg1 was recognized"}
    ]}
  ]
}
